Entries after “also recorded” stand apart in the source; their conditions may differ. Where a SMILES comes first, the peptide text is derived from it. The star is where a group is joined. Cbz = O=C(OCc1ccccc1)*; CH2F = FC*
T1: active recombinant human caspase 3 (Homo sapiens, UniProt P42574)
T1 construct: incubated with active recombinant human caspase 3; purchased BD PharMingen
T1 sequence (P42574 29-175 limits assumed): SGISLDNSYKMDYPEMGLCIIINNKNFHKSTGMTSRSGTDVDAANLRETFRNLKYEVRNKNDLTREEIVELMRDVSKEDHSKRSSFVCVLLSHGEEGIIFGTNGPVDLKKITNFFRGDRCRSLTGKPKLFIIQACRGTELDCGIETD
T1 sequence (P42574 176-277 limits assumed): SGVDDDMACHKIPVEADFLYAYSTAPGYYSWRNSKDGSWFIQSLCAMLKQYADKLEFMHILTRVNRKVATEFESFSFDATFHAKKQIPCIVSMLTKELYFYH


Experiments:
[1] = molecular target: T1, active recombinant human caspase 3; experiment: In vitro cleavage of recombinant SRF by active caspase 3, Western blot; type: biochemical; details: 20 μM Z-VAD-fmk, recombinant full length SRF
Description: Recombinant purified full length SRF was incubated with active recombinant human caspase 3 (BD PharMingen) in the presence or absence of 20 μM of Z-VAD-fmk (BD PharMingen), a caspase 3 inhibitor, in a reaction buffer (50 mM HEPES (pH 7.4), 100 mM NaCl, 1 mM EDTA, 0.1% CHAPS, 10 mM DTT and 10% glycerol). Reactions were analyzed by Western blot as described above.
To examine caspase 3 cleavage of SRF, we incubated activated caspase 3 with recombinant SRF in vitro. […] Caspase 3 cleaved SRF in a time-dependent manner, and this cleavage was inhibited by the caspase inhibitor, Z-VAD. […] In this case, the 55 kDa fragment tended to fall as a function of caspase 3 doses while there was a coincident increase into a 32 kDa fragment.

cardiac α-actin promoter = experiment: Cardiac α-actin promoter luciferase reporter (αCA-luc) co-transfection; type: cell-based, rat; details: for effect on cardiac α-actin promoter activity (in words): neonatal rat cardiomyocytes
Excerpt: (§1) The construction and use of reporter plasmids containing the skeletal (SK-luc) and cardiac α-actin (aCA-luc) promoters linked to luciferase reporters were as previously described (MacLellan et al., 1994; Wei et al., 1998). The vector pCGN, a cytomegalovirus promoter-driven expression vector, was used to express full length SRF (residues 1-508) (pCGN-SRF), N-terminal SRF (residues 1-254) (pCGN-SRF-N), C-terminal SRF (residues 255-508) (pCGN-SRF-C) and SRFpm1 (pCGN-SRFpm1) containing triple point mutants within the MADS box (Prywes and Zhu, 1992).
(§2) C2C12 myoblasts and neonatal rat cardiomyocytes were cultured as previously described (MacLellan et al., 1994; Wei et al., 1998). Cells plated in 30-mm plates were transfected with […] of total plasmid DNA containing the reporter plasmid (SK-luc or aCA-luc) and the indicated expression plasmids. Transfections were performed using LipofectAMINE (Invitrogen) according to the manufacturer's instructions. Cells were harvested 40 h post-transfection and luciferase activity was measured as previously described (MacLellan et al., 1994).
(§3) To evaluate potential functional significance of the cleaved fragments, we overexpressed the SRF-N and SRF-C fragments via CMV promoter-driven expression plasmids co-transfected with cardiac α-actin and skeletal α-actin promoter reporter plasmids in cultured rat neonatal cardiomyocytes and C2C12 myoblasts. […] This inhibitory effect was very similar to that observed by a SRF negative mutant SRFpml (Wei et al., 1998; Prywes and Zhu, 1992; Johansen and Prywes, 1993).

[2] = test system: skeletal α-actin promoter; experiment: Skeletal α-actin promoter luciferase reporter (SK-luc) co-transfection in C2C12 myoblasts; type: cell-based
Excerpt: as §1, §2, §3

[3] = test system: skeletal α-actin SRE1 DNA probe; experiment: Electrophoretic gel mobility shift assay (EMSA); type: binding; details: recombinant protein
Description: DNA binding activity of SRF-N was assayed by EMSA with recombinant SRF-N and full length SRF and with the oligonucleotide probe corresponding to the proximal SRE1 of the skeletal a-actin promoter as previously described (MacLellan et al., 1994; Wei et al., 1998). Recombinant SRF and SRF-N were generated using pET-15b (Novagen) vector, which contains 6′histidine tag. These recombinant SRFs were expressed in BL21 (Stratagene) competent cells followed by Ni-NTA (nickel-nitrilotriacetic acid) resin purification.

neonatal cardiomyocytes = experiment: Immunofluorescence analysis of cellular localization in transfected cardiomyocytes; type: cell-based, rat; details: transfected cardiac myocytes, anti-HA antibody
Excerpt: Visualization of transfected SRF and SRF-N cellular localization was implemented in neonatal cardiomyocytes attached to coverslips as described previously (Wei et al., 2001). Anti-HA antibody was used at 1:200.

cleavage of SRF by caspase 3 [1] | effect on cardiac α-actin promoter activity (in words) (cardiac α-actin promoter) | effect on skeletal α-actin promoter activity (in words) [2] | decrease of basal transcriptional activity of the cardiac α-actin promoter (cardiac α-actin promoter; cultured rat neonatal cardiomyocytes, CMV promoter-driven expression plasmid, 40 h post-transfection) [%] | inhibition of the transcriptional activity of α-actin gene promoters (cardiac α-actin promoter; summary for myogenic cells (cardiomyocytes and C2C12 myoblasts together)) | decrease of basal transcriptional activity of the skeletal α-actin promoter ([2]; CMV promoter-driven expression plasmid, 40 h post-transfection) [%] | Molecule | binding to skeletal α-actin SRE1 DNA probe [3] | nuclear localization (neonatal cardiomyocytes)
blocked; also recorded: inhibited | – | – | – | – | – | COC(=O)C[C@H](NC(=O)[C@H](C)NC(=O)[C@@H](NC(=O)OCc1ccccc1)C(C)C)C(=O)CF [Z-VAD, Z-VAD-fmk] (Cbz-Val-Ala-Asp(OMe)-CH2F) | – | –
– | did not inhibit | did not inhibit | – | – | – | SRF-C: C-terminal SRF (residues 255-508), 32 kDa fragment (protein) SSGETKDTLKPAFTVTNLPGTTSTIQTAPSTSTTMQVSSGPSFPITNYLAPVSASVSPSAVSSANGTVLKSTGSGPVSSGGLMQLPTSFTLMPGGAVAQQVPVQAIQVHQAPQQASPSRDSSTDLTQTSSSGTVTLPATIMTSSVPTTVGGHMMYPSPHAVMYAPTSGLGDGSLTVLNAFSQAPSTMQVSHSQVQEPGGVPQVFLTASSGTVQIPVSAVQLHQMAVIGQQAGSSSNLTELQVVNLDTAHSTKSE | – | –
– | repressed | repressed | 60 | 50-60% | 50 | SRF-N: N-terminal SRF (residues 1-254), 32 kDa caspase 3 cleavage fragment (protein) MLPTQAGAAAALGRGSALGGSLNRTPTGRPGGGGGTRGANGGRVPGNGAGLGPGRLEREAAAAAATTPAPTAGALYSGSEGDSESGEEEELGAERRGLKRSLSEMEIGMVVGGPEASAAATGGYGPVSGAVSGAKPGKKTRGRVKIKMEFIDNKLRRYTTFSKRKTGIMKKAYELSTLTGTQVLLLVASETGHVYTFATRKLQPMITSETGKALIQTCLNSPDSPPRSDPTTDQRMSATGFEETDLTYQVSESD | retains DNA binding activity; also recorded: bound | localize to myogenic nuclei

Source: US7582478B2, “Cleaved serum response factor in cardiac diagnosis and therapy” (Baylor College of Medicine, priority 2003, dated 2009)
